To fix the notation:
B1: Compound 40 (peptide)
peptide: Ac-GSGCWNLKRIGSQGCW-NH2
modifications: disulfide 4-15 (inferred)
B2: Compound 89 (peptide)
peptide: H-WCLWNLKRIGSQCWF-NH2
modifications: disulfide 2-13
SMILES: CC[C@H](C)[C@@H]1NC(=O)[C@H](CCCNC(=N)N)NC(=O)[C@H](CCCCN)NC(=O)[C@H](CC(C)C)NC(=O)[C@H](CC(N)=O)NC(=O)[C@H](Cc2c[nH]c3ccccc23)NC(=O)[C@H](CC(C)C)NC(=O)[C@@H](NC(=O)[C@@H](N)Cc2c[nH]c3ccccc23)CSSC[C@@H](C(=O)N[C@@H](Cc2c[nH]c3ccccc23)C(=O)N[C@@H](Cc2ccccc2)C(N)=O)NC(=O)[C@H](CCC(N)=O)NC(=O)[C@H](CO)NC(=O)CNC1=O
B3: Compound 87 (peptide)
peptide: Ac-GCLWNLKRIGSQCWF-NH2
modifications: disulfide 2-13
SMILES: CC[C@H](C)[C@@H]1NC(=O)[C@H](CCCNC(=N)N)NC(=O)[C@H](CCCCN)NC(=O)[C@H](CC(C)C)NC(=O)[C@H](CC(N)=O)NC(=O)[C@H](Cc2c[nH]c3ccccc23)NC(=O)[C@H](CC(C)C)NC(=O)[C@@H](NC(=O)CNC(C)=O)CSSC[C@@H](C(=O)N[C@@H](Cc2c[nH]c3ccccc23)C(=O)N[C@@H](Cc2ccccc2)C(N)=O)NC(=O)[C@H](CCC(N)=O)NC(=O)[C@H](CO)NC(=O)CNC1=O
B4: Compound 98 (peptide)
peptide: Fmoc-GSGCWNLKRIGSQGC-NH2
modifications: disulfide 4-15
SMILES: CC[C@H](C)[C@@H]1NC(=O)[C@H](CCCNC(=N)N)NC(=O)[C@H](CCCCN)NC(=O)[C@H](CC(C)C)NC(=O)[C@H](CC(N)=O)NC(=O)[C@H](Cc2c[nH]c3ccccc23)NC(=O)[C@@H](NC(=O)CNC(=O)[C@H](CO)NC(=O)CNC(=O)OCC2c3ccccc3-c3ccccc32)CSSC[C@@H](C(N)=O)NC(=O)CNC(=O)[C@H](CCC(N)=O)NC(=O)[C@H](CO)NC(=O)CNC1=O
B5: Compound 22 (peptide)
peptide: Ac-GSGCWNLKRIGSQGC-NH2
modifications: disulfide 4-15 (inferred)
B6: Compound 21 (peptide)
peptide: Ac-CWNLKRIGSQGC-NH2
modifications: disulfide 1-12 (inferred)
B7: Compound 115 (peptide)
peptide: Ac-CRLPWNLQRI[Ava]C-NH2
modifications: disulfide 1-12
SMILES: CC[C@H](C)[C@@H]1NC(=O)[C@H](CCCNC(=N)N)NC(=O)[C@H](CCC(N)=O)NC(=O)[C@H](CC(C)C)NC(=O)[C@H](CC(N)=O)NC(=O)[C@H](Cc2c[nH]c3ccccc23)NC(=O)[C@@H]2CCCN2C(=O)[C@H](CC(C)C)NC(=O)[C@H](CCCNC(=N)N)NC(=O)[C@@H](NC(C)=O)CSSC[C@@H](C(N)=O)NC(=O)CCCCNC1=O
B8: Compound 90 (peptide)
peptide: Ac-WCLWNLKRIGSQCWF-OH
modifications: disulfide 2-13
SMILES: CC[C@H](C)[C@@H]1NC(=O)[C@H](CCCNC(=N)N)NC(=O)[C@H](CCCCN)NC(=O)[C@H](CC(C)C)NC(=O)[C@H](CC(N)=O)NC(=O)[C@H](Cc2c[nH]c3ccccc23)NC(=O)[C@H](CC(C)C)NC(=O)[C@@H](NC(=O)[C@H](Cc2c[nH]c3ccccc23)NC(C)=O)CSSC[C@@H](C(=O)N[C@@H](Cc2c[nH]c3ccccc23)C(=O)N[C@@H](Cc2ccccc2)C(=O)O)NC(=O)[C@H](CCC(N)=O)NC(=O)[C@H](CO)NC(=O)CNC1=O
B9: Compound 121 (peptide)
peptide: Ac-CRLPWNLQRI[Ahp]C-NH2
modifications: disulfide 1-12
SMILES: CC[C@H](C)[C@@H]1NC(=O)[C@H](CCCNC(=N)N)NC(=O)[C@H](CCC(N)=O)NC(=O)[C@H](CC(C)C)NC(=O)[C@H](CC(N)=O)NC(=O)[C@H](Cc2c[nH]c3ccccc23)NC(=O)[C@@H]2CCCN2C(=O)[C@H](CC(C)C)NC(=O)[C@H](CCCNC(=N)N)NC(=O)[C@@H](NC(C)=O)CSSC[C@@H](C(N)=O)NC(=O)CCCCCCNC1=O
B10: Compound 116 (peptide)
peptide: Ac-CRLPWNLQRI[Ahx]C-NH2
modifications: disulfide 1-12
SMILES: CC[C@H](C)[C@@H]1NC(=O)[C@H](CCCNC(=N)N)NC(=O)[C@H](CCC(N)=O)NC(=O)[C@H](CC(C)C)NC(=O)[C@H](CC(N)=O)NC(=O)[C@H](Cc2c[nH]c3ccccc23)NC(=O)[C@@H]2CCCN2C(=O)[C@H](CC(C)C)NC(=O)[C@H](CCCNC(=N)N)NC(=O)[C@@H](NC(C)=O)CSSC[C@@H](C(N)=O)NC(=O)CCCCCNC1=O
B11: Compound 63 (peptide)
peptide: Ac-MCLWNLKRIGSQCEY-NH2
modifications: disulfide 2-13
SMILES: CC[C@H](C)[C@@H]1NC(=O)[C@H](CCCNC(=N)N)NC(=O)[C@H](CCCCN)NC(=O)[C@H](CC(C)C)NC(=O)[C@H](CC(N)=O)NC(=O)[C@H](Cc2c[nH]c3ccccc23)NC(=O)[C@H](CC(C)C)NC(=O)[C@@H](NC(=O)[C@H](CCSC)NC(C)=O)CSSC[C@@H](C(=O)N[C@@H](CCC(=O)O)C(=O)N[C@@H](Cc2ccc(O)cc2)C(N)=O)NC(=O)[C@H](CCC(N)=O)NC(=O)[C@H](CO)NC(=O)CNC1=O
B12: Compound 64 (peptide)
peptide: Ac-DCLWNLKRIGSQCEY-NH2
modifications: disulfide 2-13
SMILES: CC[C@H](C)[C@@H]1NC(=O)[C@H](CCCNC(=N)N)NC(=O)[C@H](CCCCN)NC(=O)[C@H](CC(C)C)NC(=O)[C@H](CC(N)=O)NC(=O)[C@H](Cc2c[nH]c3ccccc23)NC(=O)[C@H](CC(C)C)NC(=O)[C@@H](NC(=O)[C@H](CC(=O)O)NC(C)=O)CSSC[C@@H](C(=O)N[C@@H](CCC(=O)O)C(=O)N[C@@H](Cc2ccc(O)cc2)C(N)=O)NC(=O)[C@H](CCC(N)=O)NC(=O)[C@H](CO)NC(=O)CNC1=O
B13: Compound 95 (peptide)
peptide: Ac-FCLWNLKRIGSQCEY-NH2
modifications: disulfide 2-13
SMILES: CC[C@H](C)[C@@H]1NC(=O)[C@H](CCCNC(=N)N)NC(=O)[C@H](CCCCN)NC(=O)[C@H](CC(C)C)NC(=O)[C@H](CC(N)=O)NC(=O)[C@H](Cc2c[nH]c3ccccc23)NC(=O)[C@H](CC(C)C)NC(=O)[C@@H](NC(=O)[C@H](Cc2ccccc2)NC(C)=O)CSSC[C@@H](C(=O)N[C@@H](CCC(=O)O)C(=O)N[C@@H](Cc2ccc(O)cc2)C(N)=O)NC(=O)[C@H](CCC(N)=O)NC(=O)[C@H](CO)NC(=O)CNC1=O
B14: Compound 65 (peptide)
peptide: Ac-WCLWNLKRIGSQCEY-NH2
modifications: disulfide 2-13
SMILES: CC[C@H](C)[C@@H]1NC(=O)[C@H](CCCNC(=N)N)NC(=O)[C@H](CCCCN)NC(=O)[C@H](CC(C)C)NC(=O)[C@H](CC(N)=O)NC(=O)[C@H](Cc2c[nH]c3ccccc23)NC(=O)[C@H](CC(C)C)NC(=O)[C@@H](NC(=O)[C@H](Cc2c[nH]c3ccccc23)NC(C)=O)CSSC[C@@H](C(=O)N[C@@H](CCC(=O)O)C(=O)N[C@@H](Cc2ccc(O)cc2)C(N)=O)NC(=O)[C@H](CCC(N)=O)NC(=O)[C@H](CO)NC(=O)CNC1=O
B15: Compound 88 (peptide)
peptide: Ac-FCLWNLARIGSQCWF-NH2
modifications: disulfide 2-13
SMILES: CC[C@H](C)[C@@H]1NC(=O)[C@H](CCCNC(=N)N)NC(=O)[C@H](C)NC(=O)[C@H](CC(C)C)NC(=O)[C@H](CC(N)=O)NC(=O)[C@H](Cc2c[nH]c3ccccc23)NC(=O)[C@H](CC(C)C)NC(=O)[C@@H](NC(=O)[C@H](Cc2ccccc2)NC(C)=O)CSSC[C@@H](C(=O)N[C@@H](Cc2c[nH]c3ccccc23)C(=O)N[C@@H](Cc2ccccc2)C(N)=O)NC(=O)[C@H](CCC(N)=O)NC(=O)[C@H](CO)NC(=O)CNC1=O
B16: Compound 36 (peptide)
peptide: Ac-SGCFIPWNLQ[Cit]IGLPC-NH2
modifications: disulfide 3-16
SMILES: CC[C@H](C)[C@@H]1NC(=O)[C@H](CCCNC(N)=O)NC(=O)[C@H](CCC(N)=O)NC(=O)[C@H](CC(C)C)NC(=O)[C@H](CC(N)=O)NC(=O)[C@H](Cc2c[nH]c3ccccc23)NC(=O)[C@@H]2CCCN2C(=O)[C@H]([C@@H](C)CC)NC(=O)[C@H](Cc2ccccc2)NC(=O)[C@@H](NC(=O)CNC(=O)[C@H](CO)NC(C)=O)CSSC[C@@H](C(N)=O)NC(=O)[C@@H]2CCCN2C(=O)[C@H](CC(C)C)NC(=O)CNC1=O
B17: Compound 37 (peptide)
peptide: Ac-SGCRL[Hyp′]WNLQRIGLPC-NH2
modifications: disulfide 3-16
B18: Compound 39 (peptide)
peptide: Ac-CWNLKRIGSQGCW-NH2
modifications: disulfide 1-12 (inferred)
B19: Compound 66 (peptide)
peptide: H-WCLWNLKRIGSQCWF-OH
modifications: disulfide 2-13
SMILES: CC[C@H](C)[C@@H]1NC(=O)[C@H](CCCNC(=N)N)NC(=O)[C@H](CCCCN)NC(=O)[C@H](CC(C)C)NC(=O)[C@H](CC(N)=O)NC(=O)[C@H](Cc2c[nH]c3ccccc23)NC(=O)[C@H](CC(C)C)NC(=O)[C@@H](NC(=O)[C@@H](N)Cc2c[nH]c3ccccc23)CSSC[C@@H](C(=O)N[C@@H](Cc2c[nH]c3ccccc23)C(=O)N[C@@H](Cc2ccccc2)C(=O)O)NC(=O)[C@H](CCC(N)=O)NC(=O)[C@H](CO)NC(=O)CNC1=O

Drawing on patent publication US20190177366A1 (published 2019), this text covers IC50 for 19 molecules.

Several values for one entry are separate records, joined by “and”; a condition that tells them apart may be missing. Equal values may be shown once. Bridge positions count the residues as written; N and C are the ends. Square brackets hold non-standard residues; d marks the D form. Primed or numbered codes have the meaning given here. * marks the point of attachment. Fmoc = O=C(OCC1c2ccccc2-c2ccccc21)*; Cit = NC(=O)NCCC[C@H](N)C(=O)O; Hyp′ = 3-hydroxyproline; Ahp = NCCCCCCC(=O)O; Ahx = NCCCCCC(=O)O; Ava = NCCCCC(=O)O

In this assay the target is T1, His-tagged, full-length PCSK9 (human, UniProt A8T644 31-152; Q8NBP7 153-692).
T1 construct: Target protein of the PCSK9/EGF(A) TR-FRET assay (10 nM); also called His-PCSK9; proprotein convertase subtilisin/kexin type 9
T1 sequence (A8T644 31-152 limits assumed, chain 1 of 2): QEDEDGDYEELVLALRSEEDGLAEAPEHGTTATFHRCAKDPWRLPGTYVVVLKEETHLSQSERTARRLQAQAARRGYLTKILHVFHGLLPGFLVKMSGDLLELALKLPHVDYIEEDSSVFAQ
T1 sequence (A8T644 other isoform, or with tags, fused parts or gaps limits assumed, chain 2 of 2): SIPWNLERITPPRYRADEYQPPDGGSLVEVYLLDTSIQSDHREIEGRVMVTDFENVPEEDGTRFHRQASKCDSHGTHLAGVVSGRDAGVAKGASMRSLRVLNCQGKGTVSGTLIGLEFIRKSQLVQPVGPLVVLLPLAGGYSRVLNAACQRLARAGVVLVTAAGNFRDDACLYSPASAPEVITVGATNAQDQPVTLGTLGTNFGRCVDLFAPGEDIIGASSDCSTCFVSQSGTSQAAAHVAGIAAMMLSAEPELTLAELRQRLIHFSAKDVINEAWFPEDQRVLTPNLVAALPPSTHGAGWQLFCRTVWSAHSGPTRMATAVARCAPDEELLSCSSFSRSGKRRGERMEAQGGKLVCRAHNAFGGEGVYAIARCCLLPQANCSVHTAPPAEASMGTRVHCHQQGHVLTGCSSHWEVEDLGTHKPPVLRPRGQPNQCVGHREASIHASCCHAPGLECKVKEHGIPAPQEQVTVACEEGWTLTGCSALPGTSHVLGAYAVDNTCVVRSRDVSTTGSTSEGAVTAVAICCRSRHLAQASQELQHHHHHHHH
Description: TR-FRET competition; competitor EGF(A)-Fc on His-PCSK9. Background: TR-FRET usually uses a lanthanide donor and a delayed reading to cut background.
As to B1, the half-inhibitory concentration (IC50) – broadly, the concentration that inhibits the measured activity by half – was 5.96 µM.
Then B2, with 6.9 µM; and B3, with > 50 µM; and B4, with 37.6 µM.
Then B5, with 42 µM and > 50 µM; and B6, with > 50 µM; and B7, with > 50 µM.
Then B8, with 29.2 µM; and B9, with > 50 µM; and B10, with > 50 µM.
As for B11, the IC50 is 14.6 µM.
Take B12: the IC50 is > 50 µM.
Then B13, with > 50 µM; and B14, with > 50 µM.
Take B15: the concentration for half-maximal inhibition (IC50) worked out at 17.9 µM.
The result for B16 reads > 50 µM; that for B17, > 50 µM.
With B18, the IC50 is > 50 µM.
In turn, B19 had a concentration for half-maximal inhibition (IC50) of 31.3 µM.
